Assay [1] concerns ND6 mRNA. The experiment in a line: Real-time PCR of mitochondria-encoded mRNA levels in SN4741 cells. The assay is classed as cell-based, mouse. The settings on record: construct over-expressed in SN4741 cells. The text has this: (A) Mitochondria-targeting MEF2D (Mt2D) and mitochondria-targeting dominant-negative MEF2D (Mt2Ddn), which lacks the transactivation domain (TAD). […] Control indicates the control vector group. (C) Effects of Mt2D or Mt2Ddn on ND6 expression in SN4741 cells. Over-expression of Mt2Ddn in SN4741 cells reduced ND6 but not PPAR-γ coactivator 1 (PGC1) expression by western blotting (n=4, **p<0.01). Control indicates the control vector group. (D) Effects of over-expression of Mt2D or Mt2Ddn on mRNA levels of mitochondria encoded genes. […] Control indicates the control vector group. (E) Effects of Mt2D or Mt2Ddn on mtDNA L-strand transcription initiation in vitro (n=3; **P<0.01). A human mtDNA fragment containing mitochondrial L-strand promoter (LSP) and ND6 gene was used in the in vitro transcription assay. […] (F) Effects of Mt2D or Mt2Ddn on mtDNA de novo transcription in vivo (n=3; **P<0.01). Control (−) is without primers. Control (+) indicates the control vector group.
A general note: Quantitative PCR measures a nucleic acid by following its amplification.

Assay [2] has as its system SN4741 cells. The assay can be described thus: WST-1 cell viability assay. The assay is classed as cell-based, mouse. As to the method:
(A) Reduced binding of MEF2D to ND6 after neurotoxin treatment. SN4741 cells were treated with MPP+ (25 μM) or rotenone (Rot, 100 nM) for 12 hours. […] Control indicates untreated. […] Control indicates untreated. (C) Immunocytochemical analysis of mitochondrial MEF2D after MPP+ and rotenone treatment. SN4741 cells treated as described in (A) were stained (scale bar, 10 μm). […] Experiments were repeated four times. Control indicates untreated. […] SN4741 cells were treated with MPP+ after infection with the control, Mt2Ddn or Mt2DVP16 or MtND6 lentiviruses for 24 hours (upper graph: different doses of MPP+ for 24 hours; lower graph: 5 μM of MPP+ for different times). Cell viability was measured by WST-1 assay (n=4; *p<0.05; **P<0.01). Control indicates the control vector group.
WST-1 assay was done using a kit (cat. no. 11644807001) from Roche and following procedures provided by the manufacturer. WST-1 (4-[3-(4-Iodophenyl)-2-(4-nitrophenyl)-2H-5-tetrazolio]-1,3-benzene disulfonate) is a water-soluble tetrazolium salt whose cleavage by cellular enzymes correlates with cell viability. Cells were seeded in 96-well plates and treated as indicated. Than 10 μl/well of premixed WST-1 Cell Proliferation Reagent was added, and the cells were incubated for an additional 4 hr under the same conditions. Absorbance at 450 nm was measured on a multi-well plate reader (Bio-Tek).
For orientation: Formazan colour is commonly taken as a measure of viable cells.

The test system of assay [3] is SN4741 cells. The experiment in a line: Subcellular localization of over-expressed MEF2D constructs. The assay is classed as cell-based, mouse. To be noted: over-expressed in SN4741 cells. The source says:
(A) Lack of mitochondrial localization by ΔN30MEF2D. […] VDAC, PARP and c-Raf are Mt, Nu and Cy markers, respectively. Control indicates the control vector group. (B) Immunocytochemistry analysis of mitochondrial localization of transfected Flag-MEF2D. […] Experiments were repeated four times. (C, D) Requirement of mtHsp70 for mitochondria-targeting of MEF2D (n=4; **p<0.01). Control indicates untreated. […]. Knocking down mouse mtHsp70 by siRNA reduced MEF2D level in purified mitochondria from SN4741 cells (C). […] MnSOD is a known mtHsp70-imported mitochondrial matrix protein.
(A) Diagrams of Mt2DVP16 and MtND6. Mt2DVP16 was constructed by fusion of transactivation domain (TAD) of VP16 with DNA-binding domain of MEF2D and a mitochondria-targeting sequence (Mito). […] (C) Over-expression of Mt2DVP16 attenuated MEF2D siRNA-induced reduction of ND6 expression (n=3, **P<0.01).
Control indicates the group co-tranfected with control vector.
SN4741 cells or primary midbrain DA neurons were plated on glass slides in 24-well plates. Localizations of endogenous and exogenous MEF2D were visualized on a Zeiss LSM5 PASCAL confocal microscope. […] Quantification of colocalization of signals was done using “Colocalization Analysis” program of software Image Pro (Media Cybernetics). […]

For assay [4], the system named is TH+ neurons in SNpc. The assay can be described thus: MPTP mouse model of PD, TH immunohistochemistry in SNpc. The settings on record: lentivirus injected into SNpc of mouse brain, then MPTP.
Experimental: (B) Role of mitochondrial MEF2D-ND6 pathway in maintaining TH+ neurons in SNpc in a MPTP mouse model of PD. For each group, three mice received stereotactical injection of control vector (GFP) or Mt2Ddn lentivirus in SN. Two weeks later, mice were exposed to MPTP. After treatment for seven days, the survival of lentivirus-transduced TH+ neurons in SN was determined by immunohistochemistry (left panel). Quantitative analysis of nine mice from three independent experiments was shown at the bottom panel (scale bar, 30 μm; **P<0.01).

B1: Mt2Ddn: Mitochondria-targeting dominant-negative MEF2D: mouse MEF2D 1-131aa with mitochondria-targeting signal, lacks the transactivation domain (protein, UniProt Q63943 1-131, looked up, fragment)
chain: MGRKKIQIQRITDERNRQVTFTKRKFGLMKKAYELSVLCDCEIALIIFNHSNKLFQYASTDMDKVLLKYTEYNEPHESRTNADIIETLRKKGFNGCDSPEPDGEDSLEQSPLLEDKYRRASEELDGLFRRY
modifications: mitochondria-targeting signal added
As to B1, in assay [1], the “ND6 mRNA level” value was “clearly reduced” and the “mRNA levels of other mitochondria-encoded proteins” value is “little effect”. In assay [2] (SN4741 cells infected with lentivirus 24 hours, then different doses of MPP+ for 24 hours), the “sensitivity of cells to low dose MPP+ toxicity” value is recorded as “clearly sensitized”. In assay [2] (SN4741 cells infected with lentivirus, 5 μM MPP+ for different times), the “cellular viability over time” value is “impaired”. Also, in assay [3], the “mitochondrial localization by immunocytochemical staining (MitoTracker)” value is recorded as “targeted exclusively to mitochondria”. Besides, in assay [4], the “loss of TH signal in DA neurons in vivo” value is on record as “significantly accelerates”.
